Source: the supplement of paper PMC10126150
± gives the standard deviation of the averaged measurements.

Tested on: ATP
Experiment: switch fluorescence ratio, 500 uM ATP over buffer (Cy3 cluster intensity, sum of 5 cycles each) (fold (ratio)); higher = stronger signal-on switching upon ATP binding; sequences stand for … in TCGTCGGCAGCGTCAGATGTGTATAAGAGACAGTTTTTTTTTTTTTTTTTTTTTTTTT…TC
Settings: aptamer strand: ATP DNA aptamer (quencher-CACCTGGGGGAGTATTGCGGAGGAAGG + anchor), 100 nM annealed; ATP concentration: 500 uM
In short: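 Per cluster, summed Cy3 intensity from the target cycles was divided by that from the buffer cycles to give the fluorescence ratio, then averaged per switch-domain sequence. Clusters outside 100-1000 RFU were excluded. The Cy3-labelled switching-strand clusters, on a modified Illumina MiSeq flow-cell, were annealed to 100 nM quencher-labelled ATP aptamer and imaged in selection buffer, then after 15 min with 500 uM ATP at 22 °C, for five cycles with NaOH stripping and re-annealing between them.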
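Also: ATP exposure 15 min at 22 °C before imaging.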

| Sequence | switch fluorescence ratio |
| --- | --- |
| GGGGGGTAGT | 1.02 ± 0.067 |
| GGGGGGTATT | 0.987 ± 0.037 |
| GGGGGGTGGG | 0.996 ± 0.039 |
| GGGGGGTTCT | 1.01 ± 0.042 |
| GGGGGGTTGT | 1.03 ± 0.17 |
| GGGGGTAAAG | 1.01 ± 0.022 |
| GGGGGTACCG | 0.977 ± 0.021 |
| GGGGGTACCT | 1.02 ± 0.019 |
| GGGGGTACGC | 1.03 ± 0.028 |
| GGGGGTACTT | 1 ± 0.03 |
| GGGGGTATGC | 1.05 ± 0.15 |
| GGGGGTCACA | 0.989 ± 0.029 |
| GGGGGTCATG | 1.02 ± 0.073 |
| GGGGGTCCGT | 1 ± 0.025 |
| GGGGGTGAAA | 0.987 ± 0.011 |
| GGGGGTGACC | 1.02 ± 0.025 |
| GGGGGTGAGG | 1.01 ± 0.043 |
| GGGGGTGAGT | 1.02 ± 0.012 |
| GGGGGTGATC | 0.979 ± 0.024 |
| GGGGGTGCCT | 0.986 ± 0.064 |
| GGGGGTGCGG | 0.977 ± 0.044 |
| GGGGGTGGGA | 1 ± 0.019 |
| GGGGGTGTAG | 1.008 ± 0.0053 |
| GGGGGTTCAG | 0.978 ± 0.04 |
| GGGGGTTGAT | 0.991 ± 0.069 |

| Sequence | switch fluorescence ratio |
| --- | --- |
| GGGGGTTGGA | 1.01 ± 0.032 |
| GGGGGTTTAC | 1.01 ± 0.013 |
| GGGGGTTTAT | 1.01 ± 0.017 |
| GGGGGTTTTT | 0.997 ± 0.033 |
| GGGGTAAAGG | 1.04 ± 0.11 |
| GGGGTAAATT | 1 ± 0.039 |
| GGGGTAACGT | 0.983 ± 0.02 |
| GGGGTAAGGA | 1 ± 0.021 |
| GGGGTAATTG | 1.01 ± 0.019 |
| GGGGTACCGG | 1.02 ± 0.032 |
| GGGGTACGCA | 1.02 ± 0.015 |
| GGGGTACGGG | 1.05 ± 0.024 |
| GGGGTACGGT | 1 ± 0.018 |
| GGGGTAGCGG | 0.92645 ± 0.0002 |
| GGGGTAGGGT | 0.997 ± 0.032 |
| GGGGTAGGTA | 0.96 ± 0.038 |
| GGGGTAGTAC | 1.03 ± 0.026 |
| GGGGTAGTTG | 0.99 ± 0.028 |
| GGGGTATATC | 1 ± 0.024 |
| GGGGTATATT | 0.9938 ± 0.0062 |
| GGGGTATGCC | 1.01 ± 0.027 |
| GGGGTATGGC | 1.03 ± 0.023 |
| GGGGTATGTA | 0.987 ± 0.055 |
| GGGGTCACTA | 0.9559 ± 0.009 |
| GGGGTCAGAC | 1 ± 0.022 |

| Sequence | switch fluorescence ratio |
| --- | --- |
| GGGGTCAGGG | 1.02 ± 0.026 |
| GGGGTCATGC | 0.97 ± 0.041 |
| GGGGTCGCTG | 0.965 ± 0.013 |
| GGGGTCGGCC | 0.995 ± 0.018 |
| GGGGTCGTCA | 1.04 ± 0.0072 |
| GGGGTCGTCT | 1.02 ± 0.015 |
| GGGGTCTAAT | 0.999 ± 0.048 |
| GGGGTCTGAG | 0.989 ± 0.019 |
| GGGGTCTTAT | 0.996 ± 0.038 |
| GGGGTGAAGC | 1.02 ± 0.036 |
| GGGGTGAAT | 1.01 ± 0.021 |
| GGGGTGAC | 1.0027 ± 0.00099 |
| GGGGTGAGAA | 1.02 ± 0.046 |
| GGGGTGAGCC | 0.978 ± 0.017 |
| GGGGTGAGGT | 0.997 ± 0.016 |
| GGGGTGCACG | 0.988 ± 0.051 |
| GGGGTGCCTT | 1.037 ± 0.0021 |
| GGGGTGCGCG | 0.968 ± 0.025 |
| GGGGTGCGGG | 0.99 ± 0.032 |
| GGGGTGGTAG | 1.01 ± 0.012 |
| GGGGTGGTGG | 0.9888 ± 0.007 |
| GGGGTGGTTG | 0.986 ± 0.036 |
| GGGGTGTATA | 1 ± 0.045 |
| GGGGTGTATT | 0.984 ± 0.025 |
| GGGGTGTCTT | 0.992 ± 0.031 |

| Sequence | switch fluorescence ratio |
| --- | --- |
| GGGGTGTGCG | 0.9883 ± 0.0051 |
| GGGGTGTTCA | 0.999 ± 0.047 |
| GGGGTGTTGG | 1.01 ± 0.019 |
| GGGGTTAGCG | 0.991 ± 0.021 |
| GGGGTTAGTT | 0.993 ± 0.023 |
| GGGGTTATAA | 0.998 ± 0.043 |
| GGGGTTATCG | 0.99 ± 0.029 |
| GGGGTTATCT | 1.01 ± 0.026 |
| GGGGTTATTA | 0.992 ± 0.017 |
| GGGGTTCACG | 0.988 ± 0.005 |
| GGGGTTCCGT | 1 ± 0.025 |
| GGGGTTCGGG | 0.992 ± 0.017 |
| GGGGTTCGTC | 1 ± 0.044 |
| GGGGTTCTCG | 1.001 ± 0.0031 |
| GGGGTTCTGC | 0.952 ± 0.039 |
| GGGGTTGCTG | 1 ± 0.024 |
| GGGGTTGGCT | 0.995 ± 0.03 |
| GGGGTTGTGT | 0.996 ± 0.026 |
| GGGGTTGTTA | 0.988 ± 0.021 |
| GGGGTTTAGC | 0.996 ± 0.015 |
| GGGGTTTATG | 0.975 ± 0.028 |
| GGGGTTTCTC | 1.02 ± 0.031 |
| GGGGTTTTAC | 0.995 ± 0.036 |
| GGGGTTTTCA | 1.022 ± 0.0042 |
| GGGTAAAGAA | 1.01 ± 0.036 |

| Sequence | switch fluorescence ratio |
| --- | --- |
| GGGTAAATAG | 1.034 ± 0.007 |
| GGGTAAATGC | 1.01 ± 0.1 |
| GGGTAACGGA | 1.03 ± 0.04 |
| GGGTAACTTT | 1.08 ± 0.07 |
| GGGTAAGAG | 1.029 ± 0.0042 |
| GGGTAAGCCC | 0.987 ± 0.015 |
| GGGTAAGCCG | 0.918 ± 0.02 |
| GGGTAAGCTG | 1.04 ± 0.081 |
| GGGTAAGGCT | 1.01 ± 0.032 |
| GGGTAAGGGT | 1.13 ± 0.37 |
| GGGTAATGCA | 1.033 ± 0.0053 |
| GGGTAATGGC | 0.971 ± 0.014 |
| GGGTACAGGA | 0.99686 ± 5.1e-05 |
| GGGTACCTAC | 1.06 ± 0.042 |
| GGGTACGAGT | 0.9314 ± 0.0031 |
| GGGTACGTTC | 1.01 ± 0.023 |
| GGGTACGTTG | 1.01 ± 0.016 |
| GGGTACGTTT | 0.97231 ± 0.00073 |
| GGGTAGAAAA | 1.01 ± 0.043 |
| GGGTAGACAG | 0.9316 ± 0.0069 |
| GGGTAGAGTT | 0.9659 ± 0.0052 |
| GGGTAGCTTG | 0.989 ± 0.03 |
| GGGTAGGTTT | 1.02 ± 0.059 |
| GGGTAGTAGT | 0.958 ± 0.035 |
| GGGTAGTCTG | 1 ± 0.049 |

| Sequence | switch fluorescence ratio |
| --- | --- |
| GGGTATCCTC | 0.986 ± 0.037 |
| GGGTATCCTT | 1.01 ± 0.025 |
| GGGTATGAGC | 0.969 ± 0.04 |
| GGGTATGCGG | 0.978 ± 0.042 |
| GGGTATGCTG | 0.9479 ± 0.0067 |
| GGGTATGGTT | 0.998 ± 0.028 |
| GGGTATGTTG | 0.978 ± 0.032 |
| GGGTATTATT | 1.022 ± 0.0047 |
| GGGTATTGGT | 0.996 ± 0.025 |
| GGGTATTTTA | 0.988 ± 0.057 |
| GGGTCAACGA | 1.03 ± 0.051 |
| GGGTCAGCTG | 0.986 ± 0.036 |
| GGGTCAGTAG | 1.032 ± 0.0087 |
| GGGTCATGTC | 0.934 ± 0.052 |
| GGGTCATTCA | 0.9922 ± 0.0049 |
| GGGTCCGCTG | 1.06 ± 0.07 |
| GGGTCCGGTC | 1.0075 ± 7.9e-05 |
| GGGTCCTGGG | 0.973 ± 0.012 |
| GGGTCGATGT | 1.02 ± 0.056 |
| GGGTCGCAGA | 1.04 ± 0.058 |
| GGGTCGCCAT | 1 ± 0.028 |
| GGGTCGGGTT | 0.972 ± 0.037 |
| GGGTCGGTTT | 1.01 ± 0.019 |
| GGGTCGTCAT | 1.01 ± 0.015 |
| GGGTCTAGGT | 0.997 ± 0.03 |

| Sequence | switch fluorescence ratio |
| --- | --- |
| GGGTCTCATC | 1.02 ± 0.065 |
| GGGTCTTAAT | 0.981 ± 0.031 |
| GGGTCTTATG | 1.03 ± 0.078 |
| GGGTCTTGTA | 0.99 ± 0.016 |
| GGGTCTTTGT | 0.981 ± 0.026 |
| GGGTGAAGGT | 0.9866 ± 0.0047 |
| GGGTGAAGTT | 0.984 ± 0.036 |
| GGGTGAATGT | 0.993 ± 0.041 |
| GGGTGACAAC | 1.002 ± 0.0084 |
| GGGTGACCAA | 0.969 ± 0.013 |
| GGGTGACGGT | 1.01 ± 0.04 |
| GGGTGAGATA | 1.07 ± 0.011 |
| GGGTGAGTG | 0.996 ± 0.016 |
| GGGTGATCGA | 0.98 ± 0.054 |
| GGGTGATGAA | 1 ± 0.045 |
| GGGTGATGGA | 0.991 ± 0.026 |
| GGGTGATGTG | 0.955 ± 0.022 |
| GGGTGCATGT | 0.99 ± 0.02 |
| GGGTGCTGGG | 0.999 ± 0.042 |
| GGGTGGAAAA | 0.997 ± 0.048 |
| GGGTGGACAG | 0.975 ± 0.017 |
| GGGTGGACGG | 0.993 ± 0.06 |
| GGGTGGAGCT | 1 ± 0.019 |
| GGGTGGAGGA | 1.008 ± 0.0038 |
| GGGTGGCACA | 1 ± 0.0046 |

| Sequence | switch fluorescence ratio |
| --- | --- |
| GGGTGGCAGC | 0.993 ± 0.031 |
| GGGTGGCGAC | 0.988 ± 0.014 |
| GGGTGGCTGG | 0.961 ± 0.049 |
| GGGTGGGAGG | 0.991 ± 0.034 |
| GGGTGGGGCG | 1.04 ± 0.043 |
| GGGTGGGGGG | 1.01 ± 0.037 |
| GGGTGGTTTG | 1.006 ± 0.0097 |
| GGGTGTAACT | 0.9812 ± 0.0074 |
| GGGTGTACTT | 0.991 ± 0.023 |
| GGGTGTATTT | 1.02 ± 0.011 |
| GGGTGTCGGT | 0.984 ± 0.024 |
| GGGTGTGAGT | 1.03 ± 0.018 |
| GGGTGTGCTT | 1.04 ± 0.029 |
| GGGTGTGTGC | 1.03 ± 0.08 |
| GGGTGTTACA | 1.05 ± 0.022 |
| GGGTGTTAGA | 1 ± 0.014 |
| GGGTTAAATT | 1.01 ± 0.038 |
| GGGTTAACTT | 0.999 ± 0.046 |
| GGGTTAATTT | 1 ± 0.028 |
| GGGTTAGCGG | 1.01 ± 0.027 |
| GGGTTAGCTG | 1.01 ± 0.081 |
| GGGTTAGGAG | 0.99 ± 0.029 |
| GGGTTATTAG | 0.986 ± 0.018 |
| GGGTTATTGA | 0.995 ± 0.01 |
| GGGTTATTTG | 1.01 ± 0.045 |
